In the supplement of paper PMC7877785:
± gives the uncertainty stated by the source.

Test: self-splicing fitness, log relative to wild type (ln ratio); higher = more splicing; Tetrahymena group I intron in knt gene, E. coli kanamycin selection, DiMSum; sequences stand for … in CUCUCU…GGAGGGAAAAGUUAUCAGGCAUGCACCUGGUAGCUAGUCUUUAAACCAAUAGAUUGCAUCGGUUUAAAAGGCAAGACCGUCAAAUUGCGGGAAAGGGGUCAACAGCCGUUCAGUACCAAGUCUCAGGGGAAACUUUGAGAUGGCCUUGCAAAGGGUAUGGUAAUAAGCUGACGGACAUGGUCCUAACCACGCAGCCAAGUCCUAAGUCAACAGAUCUUCUGUUGAUAUGGAUGCAGUUCACAGACUAAAUGUCGGUCGGGGAAGAUGUAUUCUUCUCAUAAGAUAUAGUCGGACCUCUCCUUAAUGGGAGCUAGCGGAUGAAGUGAUGCAACACUGGAGCCGCUGGGAACUAAUUUGUAUGCGAAAGUAUAUUGAUUAGUUUUGGAGUACUCGUGGUCG
How it was run: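 Library with all eight P1ex-region intron nucleotides randomised, intron inside the knt kanamycin-resistance gene on pET-22b(+), in E. coli BL21(DE3). Cells grew overnight at 37°C or 30°C on LB agar with or without 25 μg/mL kanamycin (plus 100 μg/mL carbenicillin, 50 μM IPTG, 0.2% rhamnose), in six replicate transformations. Pooled colonies were amplicon-sequenced on Illumina HiSeq 2500. DiMSum fitness is the error-weighted combination of wild-type-normalised replicate fold changes, kanamycin versus none.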

Row | Sequence | self-splicing fitness (ln) (30 °C) | self-splicing fitness (ln) (37 °C)
1 | CGUAAGCAAUAUUACGCAUA | -3.73 ± 0.34 | -3.16 ± 0.21
2 | CGUAAGCAAUAUUACGCCGC | -1.76 ± 0.45 | -2.13 ± 0.42
3 | CGUAAGCAAUAUUACGCGAC | -3.62 ± 0.37 | -2.63 ± 0.42
4 | CGUAAGCAAUAUUACGCGGC | -2.84 ± 0.25 | -2.23 ± 0.3
5 | CGUAAGCAAUAUUACGCUAU | -3.13 ± 0.27 | -4.43 ± 0.42
6 | CGUAAGCAAUAUUACGCUCC | -2.95 ± 0.41 | -1.74 ± 0.48
7 | CGUAAGCAAUAUUACGGAUG | -0.733 ± 0.091 | -0.608 ± 0.12
8 | CGUAAGCAAUAUUACGGCUA | -2.35 ± 0.41 | -1.48 ± 0.33
9 | CGUAAGCAAUAUUACGGCUC |  | -0.977 ± 0.42
10 | CGUAAGCAAUAUUACGGGAG | -2.21 ± 0.22 | -2.81 ± 0.36
11 | CGUAAGCAAUAUUACGGGUU | -3.63 ± 0.17 | -2.98 ± 0.29
12 | CGUAAGCAAUAUUACGGUAC | -3.29 ± 0.28 | -1.78 ± 0.19
13 | CGUAAGCAAUAUUACGGUCG | -0.611 ± 0.12 | 0.212 ± 0.14
14 | CGUAAGCAAUAUUACGUAAA | -3.15 ± 0.24 | -2.1 ± 0.22
15 | CGUAAGCAAUAUUACGUAAG | -1.49 ± 0.1 | -0.165 ± 0.092
16 | CGUAAGCAAUAUUACGUACC | -1.94 ± 0.21 | -1.76 ± 0.24
17 | CGUAAGCAAUAUUACGUAUA | -2.48 ± 0.26 | -2.21 ± 0.26
18 | CGUAAGCAAUAUUACGUAUG | -2.17 ± 0.08 | -0.311 ± 0.072
19 | CGUAAGCAAUAUUACGUCUA | -2.78 ± 0.28 | -2.03 ± 0.18
20 | CGUAAGCAAUAUUACGUGAG | -2.17 ± 0.11 | -1.09 ± 0.092
21 | CGUAAGCAAUAUUACGUGGU | -3.19 ± 0.13 | -2.72 ± 0.16
22 | CGUAAGCAAUAUUACGUUCC | -2.63 ± 0.3 | 
23 | CGUCAGCAAUAUUACGAAUC | -3.1 ± 0.27 | -0.891 ± 0.33
24 | CGUCAGCAAUAUUACGACAU | -0.647 ± 0.012 | -0.0443 ± 0.032

Row | Sequence | self-splicing fitness (ln) (30 °C) | self-splicing fitness (ln) (37 °C)
25 | CGUCAGCAAUAUUACGACGU | -3.23 ± 0.17 | -1.93 ± 0.14
26 | CGUCAGCAAUAUUACGAGAU | -3.93 ± 0.21 | -2.65 ± 0.17
27 | CGUCAGCAAUAUUACGAGGG | -3.93 ± 0.1 | -1.81 ± 0.099
28 | CGUCAGCAAUAUUACGAUCC | -1.62 ± 0.086 | -0.418 ± 0.13
29 | CGUCAGCAAUAUUACGCCCC | -0.652 ± 0.24 | -1.34 ± 0.3
30 | CGUCAGCAAUAUUACGCGCG | -4.06 ± 0.39 | -2.19 ± 0.36
31 | CGUCAGCAAUAUUACGCGCU | -0.602 ± 0.18 | -2.64 ± 0.32
32 | CGUCAGCAAUAUUACGCGUU | -2.71 ± 0.14 | -2.01 ± 0.18
33 | CGUCAGCAAUAUUACGCUCU | -1.14 ± 0.12 | -0.257 ± 0.12
34 | CGUCAGCAAUAUUACGGAGC | -3.85 ± 0.42 | -1.95 ± 0.26
35 | CGUCAGCAAUAUUACGGCUG | -1.51 ± 0.12 | -1.24 ± 0.23
36 | CGUCAGCAAUAUUACGGCUU | -1.34 ± 0.11 | -0.493 ± 0.099
37 | CGUCAGCAAUAUUACGGGUG | -1.9 ± 0.091 | -0.977 ± 0.11
38 | CGUCAGCAAUAUUACGGUCA | -0.717 ± 0.08 | 0.201 ± 0.1
39 | CGUCAGCAAUAUUACGGUCC | -1.34 ± 0.079 | -0.173 ± 0.1
40 | CGUCAGCAAUAUUACGUAAU | -2.93 ± 0.17 | -1.2 ± 0.13
41 | CGUCAGCAAUAUUACGUCCC | -3.43 ± 0.31 | -0.834 ± 0.22
42 | CGUCAGCAAUAUUACGUGUG | -0.543 ± 0.059 | -0.104 ± 0.068
43 | CGUCAGCAAUAUUACGUUCG | -1.45 ± 0.068 | -0.148 ± 0.096
44 | CGUGAGCAAUAUUACGACCC | -1.76 ± 0.23 | -0.787 ± 0.16
45 | CGUGAGCAAUAUUACGAGGA | -3.04 ± 0.39 | -1.65 ± 0.33
46 | CGUGAGCAAUAUUACGAUGA | -3.64 ± 0.23 | -2.04 ± 0.17
47 | CGUGAGCAAUAUUACGAUGC | -0.111 ± 0.43 | -2 ± 0.48
48 | CGUGAGCAAUAUUACGCAGA |  | -1.49 ± 0.38
